Results taken from patent publication US20220213181A1 (Novartis, published 2022).
Changes are numbered by the printed parent chain.

T1: P4 (human)
T1 construct: linear 15-mer from the N-terminal coiled coil domain of human ANGPTL4
T1 peptide: FASWDEMNVLAHGLL

T2: P43 (human)
T2 construct: linear 15-mer from the N-terminal coiled coil domain of human ANGPTL4
T2 peptide: KHLDHEVAKPARRKR

T3: Human ANGPTL4(26-406)-FLAG-His6-Avi (human, UniProt Q9BY76 24-406, biotin on the C-terminal Avi tag (BirA) where the protein is immobilised)
T3 construct: the text calls it 20 amino acids), then QP, ANGPTL4 26-406 and FLAG-His6-Avi; the signal peptide is left out here; also called full length human ANGPTL4; hANGPTL4
T3 sequence: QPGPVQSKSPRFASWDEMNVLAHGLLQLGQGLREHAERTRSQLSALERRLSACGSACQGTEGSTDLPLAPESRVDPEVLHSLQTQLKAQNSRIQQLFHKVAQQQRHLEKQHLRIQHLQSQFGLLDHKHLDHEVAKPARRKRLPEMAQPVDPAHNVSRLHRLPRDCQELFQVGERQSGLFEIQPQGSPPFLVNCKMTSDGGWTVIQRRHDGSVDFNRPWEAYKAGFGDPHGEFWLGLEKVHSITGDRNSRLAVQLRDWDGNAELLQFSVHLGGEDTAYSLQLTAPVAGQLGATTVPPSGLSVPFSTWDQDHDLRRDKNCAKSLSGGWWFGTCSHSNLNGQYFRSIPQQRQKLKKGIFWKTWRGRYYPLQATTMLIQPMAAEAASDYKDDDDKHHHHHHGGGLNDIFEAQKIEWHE

T4: Cynomolgus monkey ANGPTL4(26-406)-FLAG-His6-Avi (cynomolgus monkey, biotin on the C-terminal Avi tag (BirA) where the protein is immobilised)
T4 construct: also called Cyno ANGPTL4 (26-406)
T4 chain: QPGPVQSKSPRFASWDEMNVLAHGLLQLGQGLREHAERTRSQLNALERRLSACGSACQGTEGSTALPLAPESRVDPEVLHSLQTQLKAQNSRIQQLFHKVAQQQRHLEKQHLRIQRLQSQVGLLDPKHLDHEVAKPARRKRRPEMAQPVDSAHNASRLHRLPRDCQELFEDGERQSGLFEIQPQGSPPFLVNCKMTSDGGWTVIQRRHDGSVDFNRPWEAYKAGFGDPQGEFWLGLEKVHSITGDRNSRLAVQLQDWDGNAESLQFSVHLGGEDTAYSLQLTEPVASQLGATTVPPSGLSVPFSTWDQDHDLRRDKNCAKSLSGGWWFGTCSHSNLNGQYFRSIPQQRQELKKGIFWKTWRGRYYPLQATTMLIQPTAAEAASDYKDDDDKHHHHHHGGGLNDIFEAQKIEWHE

B1: NEG276 (antibody, human IgG1, kappa)
heavy: not shown
light: EIVMTQSPATLSVSPGERATLSCKASQDIGSNLNWLQQKPGQAPRRLIYAVSNRGPGIPARFSGSRSGSEYTLTISSLQSEDFAVYYCLQYASSPWTFGQGTKVEIKRTVAAPSVFIFPPSDEQLKSGTASVVCLLNNFYPREAKVQWKVDNALQSGNSQESVTEQDSKDSTYSLSSTLTLSKADYEKHKVYACEVTHQGLSSPVTKSFNRGEC
notes: humanized, hIgG1/kappa, parental antibody 19C16
B2: NEG318 (antibody, human IgG1, kappa, V domains shown)
VH: QVQLVQSGAEVKKPGASVKVSCKASGYTFTSFWITWVRQAPGQGLEWMGDIYPGGATTNYNEKLQGRVTLTVDTSTSTAYMELRSLRSDDTAVYYCARSPPQVGPFDYWGQGTLVTVSS
VL: DIQMTQSPSSLSASVGDRVTITCQASDYIYHWLAWYQQKPGKAPKLLISGASSLETGVPSRFSGSGSGKDYTFTISSLQPEDIATYYCQQYWSIPWTFGQGTKLEIKR
notes: humanized, hIgG1/kappa, parental antibody 14P18
B3: NEG278 (antibody, human IgG1, kappa, V domains shown)
VH: QVQLVQSGAEVKKPGASVKVSCKASAYTFTSSWMQWVRQAPGQGLEWMGEIDPSDNYANYNQKFQGRVTLTVDTSTSTAYMELSSLRSEDTAVYYCASGSYFSNFFDYWGQGTLVTVSS
VL: EIVMTQSPATLSVSPGERATLSCKASQDIGSNLNWLQQKPGQAPRRLIYAASVREPGIPARFSGSRSGSEYTLTISSLQSEDFAVYYCLQYASSPWTFGQGTKVEIKR
notes: as for B1
B4: NEG276-LALA (antibody, human IgG1, kappa, L234A L235A)
heavy: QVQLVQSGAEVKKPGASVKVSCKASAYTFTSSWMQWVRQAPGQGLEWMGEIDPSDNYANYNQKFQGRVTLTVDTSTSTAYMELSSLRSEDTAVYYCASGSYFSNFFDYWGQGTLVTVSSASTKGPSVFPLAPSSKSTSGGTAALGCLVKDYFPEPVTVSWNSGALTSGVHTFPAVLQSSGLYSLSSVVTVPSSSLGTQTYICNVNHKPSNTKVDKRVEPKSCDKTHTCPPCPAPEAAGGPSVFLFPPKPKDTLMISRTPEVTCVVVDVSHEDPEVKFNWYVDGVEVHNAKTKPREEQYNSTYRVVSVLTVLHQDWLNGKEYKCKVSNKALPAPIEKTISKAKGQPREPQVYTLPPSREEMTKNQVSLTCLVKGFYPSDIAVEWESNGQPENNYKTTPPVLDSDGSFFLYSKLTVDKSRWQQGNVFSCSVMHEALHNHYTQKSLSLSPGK
light: B1 light
B5: NEG310 (antibody, human IgG1, kappa, V domains shown)
VH: QVQLVQSGAEVKKPGASVKVSCKASGYTFTSYTMHWVRQAPGQGLEWMGYINPSSGYTKYNQKFQGRVTMTADKSTSTAYMELSSLRSEDTAVYYCAEGWLLLAMDYWGQGTLVTVSS
VL: EAVVTQSPATLSLSPGERATLSCRSSTGAVTTSNYAIWVQEKPGQAPRGLIGGTNNRAPGIPARFSGSLSGDDATLTISSLQPEDFAVYFCALWYSDHWVFGQGTKVEIKR
notes: humanized, hIgG1/kappa, parental antibody 17B1
B6: NEG315 (antibody, human IgG1, kappa, V domains shown)
VH: B2 VH with S31N, F32Y, I51F, A56G, T57N, E62A, G104A
VL: B2 VL with D27E, H31N, A34G, S53G, I94T
notes: humanized, hIgG1/kappa, parental antibody 37P1
B7: NEG319 (antibody, human IgG1, kappa, V domains shown)
VH: B2 VH with T57N
VL: B2 VL with D27E, Y30I, H31N, S52T, S53G
notes: as for B2
B8: NEG313 (antibody, human IgG1, kappa, V domains shown)
VH: B2 VH with T30N, S31N, F32Y, I51F, A56G, T57S, E62A, G104A
VL: B2 VL with A34G, S53G, I94T
notes: as for B6

Biological target: T1, P4
Assay: linear peptide array on glass (JPT)
Description: (§1) The ability of selected antibodies of invention, namely NEG276 and NEG318, to bind to linear 15-amino-acid peptides derived from the N-terminal coiled coil domain of human ANGPTL4 was tested. The peptides were immobilized on a glass surface, and the ability of NEG276 and NEG318 to bind to the immobilized peptides was evaluated using experimental methods optimized for linear peptide epitope mapping at JPT Peptide Technologies (Berlin, Germany).

B1: no binding.
B2: no binding.

Biological target: T2, P43
Assay: linear peptide array on glass (JPT)
Description: as §1

B1: no binding.
B2: no binding.

The binders below were run against T3, Human ANGPTL4(26-406)-FLAG-His6-Avi (assay: SET (solution equilibrium titration), MSD detection, IgG).
Description: (§2) SET assays were performed as follows. In a 96-well polypropylene plate, a constant concentration of ANGPTL4 antibody (10 pM) was mixed with different concentrations of non-biotinylated human, cyno, mouse, or rat full-length ANPGLT4 protein, or human ANGPTL4 N-terminal domain protein (5-fold serial dilution ranging from 0.01 pM to 100 nM) in SET buffer (PBS, pH 7.4 without CaCl₂) or MgCl₂, 0.5% w/v bovine serum albumin (fatty acid free) and 0.02% v/v Tween-20). The final reaction volume was 80 μL. The plate was sealed using an adhesive film and incubated at 22° C. for 14 hours with constant shaking (300 rpm). During the same period of time, a 384-well streptavidin-coated Meso Scale Discovery (MSD) plate was blocked by incubating the plate with 50 μL blocking buffer (PBS, pH 7.4, 5% w/v bovine serum albumin) per well at 4° C. The blocked MSD plate was washed 3 times with wash buffer (PBS, pH 7.4 and 0.05% v/v Tween-20) using a plate washer (BioTek). Biotinylated ANGPTL4 (full-length human, cyno, mouse, or rat ANGPTL4, or human ANGPTL4 N-terminal domain) protein (1 nM, 15 μL per well) was immobilized on the surface of the streptavidin-coated MSD plate by incubation at 22° C. for one hour with constant shaking (600 rpm). The plate was then washed 3 times as described earlier.
(§3) The equilibrium binding reactions (15 μL per well) were applied to the MSD plate with immobilized ANGPTL4 and incubated for 20 min at 22° C. The unbound material was removed by washing the plate 3 times with wash buffer, and the captured antibody was detected by adding 15 μL per well of a 1:500 dilution of Sulfo-tagged goat anti-human IgG (Meso Scale Discovery). The plate was then incubated for one hour with constant shaking (600 rpm). The plate was washed 3 times, and then 15 μL/well of 1× MSD read buffer T was added and the plate was developed using a Sector Imager 6000 (Meso Scale Discovery). The data were transferred to Microsoft Excel for analysis and plotted using GraphPad Prism v6. The KD values were determined by fitting the data to the following equation: […]
(§4) where Bₘₐₓ is the signal when no ANGPTL4 protein is present in solution, CAb is the constant concentration of ANGPTL4 antibody in solution, CAg is the concentration of ANGPTL4 in solution, and KD is the equilibrium dissociation constant.

Going from B1 to B3, the Kd falls from 0.024 nM to 0.015 nM (1.6-fold). The second binds more tightly here.

Compared with B4, B5 is 2.6-fold higher in Kd: 0.008 nM for the first, 0.021 nM for the second.

B6 and B7 are within 1.5-fold of each other in Kd: 0.012 nM for the first, 0.016 nM for the second.

B2 and B8 are the same in Kd: 0.009 nM for the first, 0.009 nM for the second.

Biological target: T4, Cynomolgus monkey …
Assay: as above
Description: as §2, §3, §4

B1 and B3 are within 1.5-fold of each other in Kd: 0.014 nM for the first, 0.02 nM for the second.

Going from B4 to B5, the Kd rises from 0.007 nM to 0.022 nM (3.1-fold). The first binds more tightly here.

First: B6
Second: B7
The Kd of the first is 2.6-fold higher: 0.021 nM for the first, 0.008 nM for the second.

B2 and B8 are within 1.5-fold of each other in Kd: 0.017 nM for the first, 0.015 nM for the second.

These binders were tested against T3, Human ANGPTL4(26-406)-FLAG-His6-Avi (assay: Octet (ForteBio) kinetics, biotinylated antigen on streptavidin sensor, IgG in solution).
Description: Dissociation constants (KD) were determined for selected antibodies of the invention by using an Octet (ForteBio) kinetic binding assay. ForteBio 10× Kinetics Buffer (ForteBio, catalog number 18-5032) was diluted 10-fold with DPBS (Life Technologies, catalog number 14190-136), and the resulting solution was added (0.2 ml per well) to a 96-well plate (Greiner, catalog number 65520). Streptavidin sensors (ForteBio, catalog number 18-5020) were immersed in the solution and equilibrated for at least 10 min at room temperature. In a second 96-well plate (Greiner, catalog number 65520), sensors were washed in 1× Kinetics buffer, and then immersed in 200 ul of 25 nM biotinylated human ANGPTL4 or a biotinylated reference protein (for background subtraction) for 1000 sec at […] room temperature. […] The sensors were then transferred to a well containing 200 μl 1× Kinetics buffer, and antibody dissociation was monitored for 1200 seconds. Background-corrected association and dissociation curves were globally fitted by Octet Software (ForteBio) to generate association (kₐ) and dissociation (kd) rate constants, which in turn were used to calculate equilibrium dissociation constants (KD).

B1 and B5 are within 1.5-fold of each other in Kd: 0.023 nM for the first, 0.025 nM for the second.

B6 and B7 are within 1.5-fold of each other in Kd: 0.029 nM for the first, 0.036 nM for the second.

B2 and B8 are within 1.5-fold of each other in Kd: 0.045 nM for the first, 0.04 nM for the second.

B1 and B5 are within 1.5-fold of each other in koff: 8e-06 s⁻¹ for the first, 1.1e-05 s⁻¹ for the second.

B6 and B7 are within 1.5-fold of each other in koff: 7.9e-06 s⁻¹ for the first, 1e-05 s⁻¹ for the second.

B2 and B8 are within 1.5-fold of each other in koff: 1.2e-05 s⁻¹ for the first, 1.1e-05 s⁻¹ for the second.

B1 and B3 are within 1.5-fold of each other in kon: 340000 M⁻¹ s⁻¹ for the first, 300000 M⁻¹ s⁻¹ for the second.

B5 and B6 are within 1.5-fold of each other in kon: 220000 M⁻¹ s⁻¹ for the first, 280000 M⁻¹ s⁻¹ for the second.

B7 and B2 are within 1.5-fold of each other in kon: 280000 M⁻¹ s⁻¹ for the first, 270000 M⁻¹ s⁻¹ for the second.

In the case of B8, the kon is reported as 280000 M⁻¹ s⁻¹.
